From paper PMC5423696
pKd: −log10 of the molar value.

Target: LAMP1_(distal)-Fc (human)
Experiment: SPR

Substance: GP1_(LASV)-Fc (from UniProt P08669 75-237) (Fc fusion)
- pKd: 7.82
